As a reminder, the Kd is a measure of binding affinity in units of concentration. Read a high Kd as a looser complex.

Among the data in paper PMC11091212 are Kd values, retold here.

For experiment [1], the target named is Microfibril-associated glycoprotein 4 (human) (UniProt P55083). Description: SPR; Ca2+. Particulars: domain or fragment. (In SPR one partner is held on a chip, and binding of the other changes the refractive index at the surface.)
Experiment [2] shares this target. The experiment can be described thus: SPR; Ca2+ form (octamer): MFAP4 or MFAP4_(C34S) amine-coupled on CM5 (Biacore X), elastogenic proteins as analytes 5-100 µg/mL in TBS/Ca2+ (2 mM CaCl2); 1:1 Langmuir fit, KD is the average over five concentrations.

Chain of Microfibril-associated glycoprotein 4 (human) (P55083 22-255): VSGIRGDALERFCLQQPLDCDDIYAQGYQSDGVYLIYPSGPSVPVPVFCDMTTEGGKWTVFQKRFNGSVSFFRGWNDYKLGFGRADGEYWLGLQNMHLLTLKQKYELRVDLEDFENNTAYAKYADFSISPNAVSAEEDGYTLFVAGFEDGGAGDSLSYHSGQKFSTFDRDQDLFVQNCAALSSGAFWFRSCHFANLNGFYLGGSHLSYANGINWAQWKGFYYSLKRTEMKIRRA

As for N-terminal half of LTBP4S, the Kd in experiment [1] is 16 nM. That is a double-digit nanomolar value.
With “latent transforming growth factor beta binding protein-4, short isoform (natural protein)”, the Kd in experiment [2] stood at 15 nM.
Same read-out and setting: in the case of “recombinant N-terminal half of fibrillin-1 (domain or fragment)” it was 1.8 nM.
